Experiments:
[1] = target: His-tagged human tenascin-C (human) (UniProt P24821); test: pull-down on tenascin-C-Sepharose 4B, multiple reaction monitoring
[2] = target: His-tagged human tenascin-C (human) (UniProt P24821); test: pull-down from HEK293 conditioned medium on tenascin-C-Sepharose 4B, nanoLC-MSMS
[3] = target: His-tagged human tenascin-C (human) (UniProt P24821); test: pull-down on tenascin-C-Sepharose 4B, spectral counting normalized to background proteins
[4] = target: His-tagged human tenascin-C (human) (UniProt P24821); test: pull-down from HEK293 conditioned medium on tenascin-C-Sepharose 4B, nanoLC-MSMS; listed as background protein (control column count 32)
[5] = target: His-tagged human tenascin-C (human) (UniProt P24821); test: pull-down from HEK293 conditioned medium on tenascin-C-Sepharose 4B, nanoLC-MSMS; listed as background protein (control column score 833)
[6] = target: horse fibronectin coupled to CNBr-activated Sepharose 4B (horse) (UniProt Q28377); test: pull-down from HEK293 conditioned medium on horse fibronectin-Sepharose 4B, nanoLC-MSMS; listed as background protein (control column count 32)
[7] = target: horse fibronectin coupled to CNBr-activated Sepharose 4B (horse) (UniProt Q28377); test: pull-down from HEK293 conditioned medium on horse fibronectin-Sepharose 4B, nanoLC-MSMS; listed as background protein (control column score 833)
[8] = target: His-tagged human tenascin-C (human) (UniProt P24821); test: pull-down from HEK293 conditioned medium on tenascin-C-Sepharose 4B, nanoLC-MSMS; listed as background protein (control column count 44)
[9] = target: His-tagged human tenascin-C (human) (UniProt P24821); test: pull-down from HEK293 conditioned medium on tenascin-C-Sepharose 4B, nanoLC-MSMS; listed as background protein (control column score 720)
[10] = target: horse fibronectin coupled to CNBr-activated Sepharose 4B (horse) (UniProt Q28377); test: pull-down from HEK293 conditioned medium on horse fibronectin-Sepharose 4B, nanoLC-MSMS; listed as background protein (control column count 44)
[11] = target: horse fibronectin coupled to CNBr-activated Sepharose 4B (horse) (UniProt Q28377); test: pull-down from HEK293 conditioned medium on horse fibronectin-Sepharose 4B, nanoLC-MSMS; listed as background protein (control column score 720)
[12] = target: horse fibronectin coupled to CNBr-activated Sepharose 4B (horse) (UniProt Q28377); test: pull-down from HEK293 conditioned medium on horse fibronectin-Sepharose 4B, nanoLC-MSMS

Sequence of Fibronectin from HEK293 conditioned medium, P02751 32-2477 (P02751 32-2477 limits assumed): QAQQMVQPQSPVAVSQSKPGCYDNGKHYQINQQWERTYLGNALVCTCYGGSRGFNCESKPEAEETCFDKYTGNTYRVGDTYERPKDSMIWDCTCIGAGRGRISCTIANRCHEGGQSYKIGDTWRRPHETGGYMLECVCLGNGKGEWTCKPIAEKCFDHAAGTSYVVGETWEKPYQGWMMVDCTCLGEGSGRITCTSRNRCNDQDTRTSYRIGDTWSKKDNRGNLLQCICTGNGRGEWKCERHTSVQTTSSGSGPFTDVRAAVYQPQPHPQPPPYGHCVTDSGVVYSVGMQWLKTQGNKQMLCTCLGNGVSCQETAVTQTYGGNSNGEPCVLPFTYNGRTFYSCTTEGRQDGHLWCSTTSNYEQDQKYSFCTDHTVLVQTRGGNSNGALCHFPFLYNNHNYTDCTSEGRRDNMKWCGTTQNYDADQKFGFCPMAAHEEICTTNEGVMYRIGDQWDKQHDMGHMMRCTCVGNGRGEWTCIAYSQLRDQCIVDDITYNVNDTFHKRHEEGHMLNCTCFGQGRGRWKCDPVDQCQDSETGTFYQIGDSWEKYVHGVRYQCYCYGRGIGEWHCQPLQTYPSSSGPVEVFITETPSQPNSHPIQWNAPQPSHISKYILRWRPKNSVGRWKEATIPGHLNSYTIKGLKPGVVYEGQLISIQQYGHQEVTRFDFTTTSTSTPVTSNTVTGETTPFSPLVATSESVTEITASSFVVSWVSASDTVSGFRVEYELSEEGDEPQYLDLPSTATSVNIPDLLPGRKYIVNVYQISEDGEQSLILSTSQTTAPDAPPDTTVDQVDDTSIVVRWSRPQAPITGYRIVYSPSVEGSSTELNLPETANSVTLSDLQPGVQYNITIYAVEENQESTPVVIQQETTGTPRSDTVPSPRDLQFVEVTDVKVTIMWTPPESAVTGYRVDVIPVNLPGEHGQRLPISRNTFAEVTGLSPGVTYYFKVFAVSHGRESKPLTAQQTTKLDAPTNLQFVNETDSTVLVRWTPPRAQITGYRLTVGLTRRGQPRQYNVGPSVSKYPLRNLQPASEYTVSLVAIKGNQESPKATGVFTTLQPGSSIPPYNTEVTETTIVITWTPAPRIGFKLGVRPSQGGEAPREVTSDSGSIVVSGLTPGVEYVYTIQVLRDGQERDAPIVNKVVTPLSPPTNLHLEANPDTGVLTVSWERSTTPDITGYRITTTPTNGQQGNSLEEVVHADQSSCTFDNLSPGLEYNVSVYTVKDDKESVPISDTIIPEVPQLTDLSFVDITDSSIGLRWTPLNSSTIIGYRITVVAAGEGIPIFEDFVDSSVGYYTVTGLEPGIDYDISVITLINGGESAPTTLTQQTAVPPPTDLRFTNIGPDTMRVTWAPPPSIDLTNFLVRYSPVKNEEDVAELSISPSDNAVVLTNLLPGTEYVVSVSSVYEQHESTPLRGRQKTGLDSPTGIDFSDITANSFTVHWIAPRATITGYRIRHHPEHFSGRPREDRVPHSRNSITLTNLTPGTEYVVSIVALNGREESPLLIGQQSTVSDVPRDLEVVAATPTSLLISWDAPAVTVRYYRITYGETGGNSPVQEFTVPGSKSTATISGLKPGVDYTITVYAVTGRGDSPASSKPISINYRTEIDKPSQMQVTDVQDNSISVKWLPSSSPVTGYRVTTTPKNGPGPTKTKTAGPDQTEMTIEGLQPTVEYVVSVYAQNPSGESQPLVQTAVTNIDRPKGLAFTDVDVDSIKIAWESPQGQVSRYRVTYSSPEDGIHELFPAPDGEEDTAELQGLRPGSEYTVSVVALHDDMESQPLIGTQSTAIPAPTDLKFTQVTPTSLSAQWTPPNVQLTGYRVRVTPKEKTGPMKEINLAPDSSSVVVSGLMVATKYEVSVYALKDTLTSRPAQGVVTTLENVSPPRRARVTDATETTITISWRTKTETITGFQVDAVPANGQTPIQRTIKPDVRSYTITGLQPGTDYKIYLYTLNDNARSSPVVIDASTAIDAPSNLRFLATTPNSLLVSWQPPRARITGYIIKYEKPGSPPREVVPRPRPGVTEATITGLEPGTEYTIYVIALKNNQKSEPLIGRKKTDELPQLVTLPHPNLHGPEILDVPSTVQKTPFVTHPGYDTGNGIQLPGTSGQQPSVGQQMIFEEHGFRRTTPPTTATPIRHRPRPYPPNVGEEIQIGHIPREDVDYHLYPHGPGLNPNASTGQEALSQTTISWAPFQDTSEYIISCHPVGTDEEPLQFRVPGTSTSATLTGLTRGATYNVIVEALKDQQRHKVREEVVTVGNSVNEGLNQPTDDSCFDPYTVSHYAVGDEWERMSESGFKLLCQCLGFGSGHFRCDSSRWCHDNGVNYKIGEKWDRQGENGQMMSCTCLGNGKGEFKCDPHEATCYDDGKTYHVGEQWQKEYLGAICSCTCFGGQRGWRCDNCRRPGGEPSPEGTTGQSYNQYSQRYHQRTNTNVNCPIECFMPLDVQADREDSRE
Sequence of His-tagged human tenascin-C (human) (P24821 23-2201): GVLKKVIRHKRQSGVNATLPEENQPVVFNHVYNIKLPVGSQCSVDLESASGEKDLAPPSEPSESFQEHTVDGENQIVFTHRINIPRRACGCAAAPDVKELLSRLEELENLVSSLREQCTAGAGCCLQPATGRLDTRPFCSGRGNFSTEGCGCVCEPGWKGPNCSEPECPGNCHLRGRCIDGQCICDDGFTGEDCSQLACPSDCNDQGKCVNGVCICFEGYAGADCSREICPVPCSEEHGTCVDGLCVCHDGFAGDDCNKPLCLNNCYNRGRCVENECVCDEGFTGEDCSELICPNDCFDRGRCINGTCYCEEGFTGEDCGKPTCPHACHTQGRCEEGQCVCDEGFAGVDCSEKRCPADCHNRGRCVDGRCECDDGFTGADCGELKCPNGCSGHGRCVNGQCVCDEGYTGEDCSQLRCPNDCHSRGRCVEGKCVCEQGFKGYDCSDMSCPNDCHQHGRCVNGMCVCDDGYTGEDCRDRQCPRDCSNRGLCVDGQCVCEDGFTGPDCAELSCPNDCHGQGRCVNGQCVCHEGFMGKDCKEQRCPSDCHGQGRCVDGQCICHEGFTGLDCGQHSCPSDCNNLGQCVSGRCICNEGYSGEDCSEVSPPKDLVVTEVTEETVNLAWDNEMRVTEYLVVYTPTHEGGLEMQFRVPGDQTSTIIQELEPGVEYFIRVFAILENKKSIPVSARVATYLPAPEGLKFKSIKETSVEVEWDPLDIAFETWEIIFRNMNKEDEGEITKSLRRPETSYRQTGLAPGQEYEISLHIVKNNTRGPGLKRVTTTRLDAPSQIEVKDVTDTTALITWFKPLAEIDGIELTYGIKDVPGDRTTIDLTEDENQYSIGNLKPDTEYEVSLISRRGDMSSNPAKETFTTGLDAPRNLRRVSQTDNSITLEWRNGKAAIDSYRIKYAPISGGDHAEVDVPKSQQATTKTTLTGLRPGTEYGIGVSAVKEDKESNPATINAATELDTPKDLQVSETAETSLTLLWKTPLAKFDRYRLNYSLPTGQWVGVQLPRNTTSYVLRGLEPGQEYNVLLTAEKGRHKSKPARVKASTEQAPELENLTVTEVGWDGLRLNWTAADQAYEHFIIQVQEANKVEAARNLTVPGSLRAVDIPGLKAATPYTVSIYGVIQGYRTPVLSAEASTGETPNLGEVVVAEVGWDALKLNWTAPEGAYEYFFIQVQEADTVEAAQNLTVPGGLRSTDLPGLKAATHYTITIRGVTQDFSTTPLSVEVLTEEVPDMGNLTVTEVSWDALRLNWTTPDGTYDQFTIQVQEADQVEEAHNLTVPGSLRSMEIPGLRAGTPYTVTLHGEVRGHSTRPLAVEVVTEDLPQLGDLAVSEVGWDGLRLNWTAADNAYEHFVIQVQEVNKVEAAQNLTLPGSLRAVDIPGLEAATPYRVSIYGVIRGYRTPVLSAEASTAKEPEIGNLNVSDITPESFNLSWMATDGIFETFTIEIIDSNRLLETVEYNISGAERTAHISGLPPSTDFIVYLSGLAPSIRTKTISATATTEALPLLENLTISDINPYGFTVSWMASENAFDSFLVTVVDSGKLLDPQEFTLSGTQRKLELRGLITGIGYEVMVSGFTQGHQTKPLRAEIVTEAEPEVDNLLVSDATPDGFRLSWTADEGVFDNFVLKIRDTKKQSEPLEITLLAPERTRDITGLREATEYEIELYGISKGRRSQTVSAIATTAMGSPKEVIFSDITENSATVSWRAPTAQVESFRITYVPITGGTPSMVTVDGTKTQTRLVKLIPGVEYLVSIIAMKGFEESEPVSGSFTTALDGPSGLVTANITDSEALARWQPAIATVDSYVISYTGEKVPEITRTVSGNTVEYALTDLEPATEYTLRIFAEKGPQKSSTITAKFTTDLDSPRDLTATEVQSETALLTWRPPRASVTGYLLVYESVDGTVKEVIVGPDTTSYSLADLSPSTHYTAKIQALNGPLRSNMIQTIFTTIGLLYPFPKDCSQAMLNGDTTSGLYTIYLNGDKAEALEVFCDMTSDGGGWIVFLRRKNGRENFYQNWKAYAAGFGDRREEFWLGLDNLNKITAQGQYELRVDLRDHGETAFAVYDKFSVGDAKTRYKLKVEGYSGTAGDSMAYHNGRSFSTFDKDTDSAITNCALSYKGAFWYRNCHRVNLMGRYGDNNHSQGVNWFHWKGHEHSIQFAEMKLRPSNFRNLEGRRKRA

Substance	normalized enrichment (MRM), tenascin-C against control [1]	MASCOT Score (tenascin-C) [2]	spectrum count (tenascin-C) [2]	normalized enrichment (spectrum count), tenascin-C against control [3]	further results
alpha-enolase (ENOA) from HEK293 conditioned medium (from UniProt P06733 2-434) (enzyme)					spectrum count (tenascin-C) [4]: 42; MASCOT Score (tenascin-C) [5]: 1040; spectrum count (fibronectin) [6]: 26; MASCOT Score (fibronectin) [7]: 701
Peptidyl-prolyl cis-trans isomerase A (PPIA) from HEK293 conditioned medium (from UniProt P62937 2-165) (enzyme)					spectrum count (tenascin-C) [8]: 56; MASCOT Score (tenascin-C) [9]: 675; spectrum count (fibronectin) [10]: 36; MASCOT Score (fibronectin) [11]: 676
Nidogen-2 (from UniProt Q14112 31-1375)	2.2 fold	437	15	5.8 fold	
Fibronectin from HEK293 conditioned medium, P02751 32-2477	4.8 fold	544	25	19.2 fold	
Fibronectin from HEK293 conditioned medium (from UniProt P02751 32-2477)					MASCOT Score (fibronectin) [12]: 2210; spectrum count (fibronectin) [12]: 135

Now from value to substance, other results behind:

normalized enrichment (MRM), tenascin-C against control [1]	MASCOT Score (tenascin-C) [2]	spectrum count (tenascin-C) [2]	normalized enrichment (spectrum count), tenascin-C against control [3]	Substance	further results
2.1 fold	258	11	4.2 fold	Clusterin (from UniProt P10909 23-449)	
1.2 fold	402	26	3.3 fold	Phosphoglycerate kinase 1 (from UniProt P00558 2-417) (enzyme)	

From US20130004519A1
